{
  "source": "patent US20260258115A1",
  "about": "(MAPP BIOPHARMACEUTICAL, published 2026)",
  "binders": {"B1": {"name": "ADI-41347 (antibody, V domains shown)", "VH": "EVQLVESGPGLVKPSGTLSLTCAVSGGSVSSDNWWSWVRQPPGKGIEWIGEIYPSGGTNYNPSLNSRVTISVDKSKNQFSLKLNSVTAADTAIYYCARAPFDSSGYHSNSVWGQGTLVTVSS", "VL": "ETTLTQSPLSLPVTPGEPASISCRSSQSLLHSNGHNYLDWYVQKPGQSPQLLIYLSSNRASGVPDRFSGSGSGTDFTLRISRVEAEDVGVYYCMQPLQTPQTFGQGTKVEIK"}, "B2": {"name": "ADI-41519 (antibody, V domains shown)", "VH": "QVQLVESGPGLVKPSETLSLTCNVSGGSIITSGSYWGWIRQPPGKGLTWIGSISYSGTTYYNPSLRSRLTISLDTSRNHFSLQLTSVSAADTAVYYCARAFYEVWTGSEIPGDFDRWGQGTLVTVSS", "VL": "EIVLTQSPGTLSLSPGERATLSCRASQSVSSSYLAWYQQKPGQAPRLLIYGASSRAIDIPDRFSGSGSGTDFTLTISRLEPEDFAVYYCQQFRRSPWTFGQGTKVDIK"}, "B3": {"name": "ADI-41340 (antibody, V domains shown)", "VH": "QVQLVQSGAEVKTPGSSVKVSCKASGGTFRSYPITWVRQAPGQGLEWMGTVIPVFDTVNYAPKFQGRVSITADESTNTAYMELSSLRSDDSAVYYCARDLGWLRPMTTVTSPHFDYWGQGTLVTVSS", "VL": "QSVLTQPASVSGSPGQSITISCTGTSSDVGGYDFVSWYQQHPGKAPKLMISEVTDRPSGVSNRFSGSKSGNTASLTISGLQAEDEADYYCTSYTSSRTYVFGTGTKLTVL"}, "B4": {"name": "ADI-41348 (antibody, V domains shown)", "VH": "QVQLQESGPGLVKPSQTLSLTCAVSGGSISSGGYYWSWIRQHPGKGLEWIGYIYYSGSTYYNPSLKSPVTISVDTSKNQFSLKLTSVTAADTAVYYCARGDYYFDGSGRTTAAFDIWGQGTMVTVSS", "VL": "DIQVTQSPSSLSASVGDRVTITCRASQSISTFLNWYQQKPGRAPKLLIYDASNLQSGVPSRVSGSGSGTDFTLTISSLHPEDFATYYCQQSYTTPYTFGQGTKVDIK"}, "B5": {"name": "ADI-41343 (antibody, V domains shown)", "VH": "EVQLVESGGGLVKPGGSLRLSCAASGFTFSSYYMNWVRQAPGKGLEWVSSISGGSSYISYADSVKGRFTISRDNAKNSLYLQMNSLRAEDTAVYYCARVDTPMVRGYYFDYWGQGTLVTVSS", "VL": "QSVLTQPPSVSGAPGRRVTISCTGSSSNIGAGYDVHWYQQLPGTAPKLLIFANSNRPSGVPDRFSGSKSGTSASLAITGLQAEDEADYYCQSYDSSLSGSVFGGGTKVTVL"}, "B6": {"name": "ADI-41518 (antibody, V domains shown)", "VH": "EVQLVESGGGLVKPGGSLRLSCAASGFTFSSYSMNWVRQAPGKGLEWVSSISSSSSYINYADSVKGRFTISRDNAKNSLYLQMNSLRAEDTALYYCARDLGYCSDTSCTPGIGYWGQGTLVTVSS", "VL": "QPVLTQPPSVSGAPGQRVTISCTGSSSNIGAGYDVHWYQQLPGTAPKLLIYGNSNRPSGVPDRFSGSKSGTSASLAITGLQAEDEADYYCQSYDSGLSPWVFGGGTKLTVL"}, "B7": {"name": "ADI-41344 (antibody, V domains shown)", "VH": "EVQLVESGGGLVKPGGSLRLSCAASGSSFSSYYMNWVRQAPGKGLEWVSSISSSSTYIDYADSVKGRFTISRDNAKNSLFLQMNSLRAEDTAVYYCARVSSPMIRGYYLDYWGQGTLVTVSS", "VL": "QPVLTQPPSVSGAPGQRVTISCTGSSSNIGAGYDVHWYQQLPGTAPKLVIHGNSNRPSGVPDRFSGSKSGTSASLAITGLQGEDEADYYCQSYDSSLSGSVFGGGTKLTVL"}, "B8": {"name": "ADI-41505 (antibody, V domains shown)", "VH": "QVQLQQSGAGLLKPSETLSLTYVVYGGSFSGYYWSWIRQPPGKGLEWVGDINHSTTTNYNPSLESRITISIDTSKNQFSLNLSSVTAADSAVYYCARGPKECTSSSCDRFGVDYFYYGMDVWGRGTTVTVSS", "VL": "QSVLTQPPSVSGAPGQRVTISCTGSSANIGAGYDVHWYQQFPGTAPKLLIFGNSNRPSGVPDRFSGSKSGTSASLAITGLQAGDEADYYCQSYDGTLGGWVFGGGTQLTVL"}, "B9": {"name": "ADI-41341 (antibody, V domains shown)", "VH": "QVQLVQSGAEVKKPGSSVKVSCKASGGTFSSYATHWVRQAPGQGLEWMGGIIPIFGRATYAQKFQGRVTISADESTSTAYMELSSLRSEDTAVYYCARGRDDRSGDHIAFLYHYGMDVWGQGSTVTVSS", "VL": "QSVLTQPPSVSAAPGQKVSISCSGSSSNIGINHASWYQHLPGTAPKLLIYDNNKRPSGIPDRFSGSKSGTSATLGISGLQTGDEAAYYCGTWDTGLSAVVFGGGTKLTVL"}, "B10": {"name": "ADI-41467 (antibody, V domains shown)", "VH": "EVQLVESGGGLVKPGGSLRLSCAASGFSFSSYNMNWVRQAPGKGLEWVSSISGGSSFVNYADSVKGRFTISRDNAKNSLYLQMSSLKAEDTAIYYCARDPVYCSAASCSAYFDSWGQGSLVTVSS", "VL": "QSVLTQPPSVSGAPGQRVTISCTGSSSNIGAGYDVHWYQQLPGTAPKLLIYGNNNRPSGVPDRFSGFKSGSSASLAITGLQAEDEADYYCQSYDIGLSDSHVVFGGGTQLTVL"}, "B11": {"name": "ADI-41342 (antibody, V domains shown)", "VH": "QVQLVQSGAEVKKPGSSVKVSCKASGGTLTSYGVSWVRQAPGQGLEWMGGIIPIFGTVDYAQKFQGRVTITADEPTSTAYMELSSLTSDDTAVYYCARDPWVSGPVEFYYYFDVWGRGTLVTVSS", "VL": "DIVLTESPATLSLSPGERATLSCRASQSINNRYLAWYQQKPGQAPRLLIFGASSRATGIPDRFSGSGSGTDFTLTISRLEPEDFAVYYCQQYGSTPPTFGQGTKVEIK"}, "B12": {"name": "ADI-41349 (antibody, V domains shown)", "VH": "EVQLLESGGGLVQPGRSLRLSCTGSGFTFGDYAMNWVRQAPGKGLEWVGLIRSKDYGGTTEFAASLKGRLTISRDDSKSIAYLQMHSLKTEDSAVYYCTRAHLTDYTDINGYQYYFDYWGQGSPVTVSS", "VL": "DIQMTQSPSSLSASVGDRVTITCQASQDISNFLNWYQQRPGKAPKLLIHDASNLETGVPSRFSGSGSRTEFTFTISSLQPEDIGTYYCQHYDNFPYTFGQGTKVEIK"}, "B13": {"name": "ADI-41515 (antibody, V domains shown)", "VH": "QVQLVESGGGLVQPGGSLRLSCAASGFTFSDYAMSWVRQAPGKGLVWVSSISGSGKFTYYEDSLRGRVTISRDNSKNTVYLHMNSLRTEDTALYYCARLRIPVINEVDGAMDVWGQGTTVTVSS", "VL": "SYELTQLPSVSVSPGQTARITCSGDALPKKFAYWYQQKSGQAPVLVIYEDTGRPSGIPERFSGSTSGTTATLTINGAQVEDEGDYYCYSADSSDNQGVFGGGTKVTVL"}, "B14": {"name": "ADI-41345 (antibody, V domains shown)", "VH": "EVQLVQSGAEVRKPGESLKISCKGSGYNFASYWIAWVRQMPGKGLEWMGIIFPGDSDTRYSPSFQGQVTISVDKSISTAYLQWSSLKASDTAIYYCATSKYTFGYLDWGQGTLVTVSS", "VL": "NFMLTQPHSVSESPGKTVTISCTRSSGSIASNYVQWYQQRPGSAPTTVIYEDNQRPSGVPDRFSGSIDSSSNSASLTISGLKTEDEADYYCQSYDTSNQVFGTGTKVTVL"}, "B15": {"name": "ADI-41346 (antibody, V domains shown)", "VH": "QVQLVQSGPEVKKPGESLKISCTLSASGLTTYWIGWVRQMPAKGLEWMGIIFPGDSDTRYSPSFQGQVTISADKSTNTAYLQWSGLKASDTAIYYCATLQTPVTGLDQWGQGTLVTVSS", "VL": "NFMLTQPHSVSESPGKTVTISCTRSSGNIARSYVQWYQQRPGSAPTTVIHEDDQRPSGVPDRFSGSIDTSSNSASLTISGLKTEDEADYYCQSYDPSNYVFGTGTKVTVL"}},
  "key": {"RSV F on RSV-A2 virus [1]": {"target": "RSV F on RSV-A2 virus (Respiratory syncytial virus (RSV-A2))", "assay": "cell-based or functional assay"}, "RSV F on RSV-A2 virus [2]": {"target": "RSV F on RSV-A2 virus (Respiratory Syncytial Virus (RSV-A2), UniProt P03420 26-574)", "assay": "cell-based or functional assay"}},
  "data": [
    {"binder": "B1", "values": [
      {"measurement": "Neutralization IC50 (RSV subtype A)", "setting": "RSV F on RSV-A2 virus [1]", "result": "> 25", "unit": "µg/mL"}
    ]},
    {"binder": "B2", "values": [
      {"measurement": "Neutralization IC50 (RSV subtype A)", "setting": "RSV F on RSV-A2 virus [2]", "result": "> 25", "unit": "µg/mL"}
    ]},
    {"binder": "B3", "values": [
      {"measurement": "Neutralization IC50 (RSV subtype A)", "setting": "RSV F on RSV-A2 virus [1]", "result": "> 25", "unit": "µg/mL"}
    ]},
    {"binder": "B4", "values": [
      {"measurement": "Neutralization IC50 (RSV subtype A)", "setting": "RSV F on RSV-A2 virus [1]", "result": 0.0765, "unit": "µg/mL"}
    ]},
    {"binder": "B5", "values": [
      {"measurement": "Neutralization IC50 (RSV subtype A)", "setting": "RSV F on RSV-A2 virus [1]", "result": 0.177, "unit": "µg/mL"}
    ]},
    {"binder": "B6", "values": [
      {"measurement": "Neutralization IC50 (RSV subtype A)", "setting": "RSV F on RSV-A2 virus [2]", "result": "> 25", "unit": "µg/mL"}
    ]},
    {"binder": "B7", "values": [
      {"measurement": "Neutralization IC50 (RSV subtype A)", "setting": "RSV F on RSV-A2 virus [1]", "result": 0.0637, "unit": "µg/mL"}
    ]},
    {"binder": "B8", "values": [
      {"measurement": "Neutralization IC50 (RSV subtype A)", "setting": "RSV F on RSV-A2 virus [2]", "result": "> 25", "unit": "µg/mL"}
    ]},
    {"binder": "B9", "values": [
      {"measurement": "Neutralization IC50 (RSV subtype A)", "setting": "RSV F on RSV-A2 virus [1]", "result": "> 25", "unit": "µg/mL"}
    ]},
    {"binder": "B10", "values": [
      {"measurement": "Neutralization IC50 (RSV subtype A)", "setting": "RSV F on RSV-A2 virus [2]", "result": "> 25", "unit": "µg/mL"}
    ]},
    {"binder": "B11", "values": [
      {"measurement": "Neutralization IC50 (RSV subtype A)", "setting": "RSV F on RSV-A2 virus [1]", "result": "> 25", "unit": "µg/mL"}
    ]},
    {"binder": "B12", "values": [
      {"measurement": "Neutralization IC50 (RSV subtype A)", "setting": "RSV F on RSV-A2 virus [1]", "result": "> 25", "unit": "µg/mL"}
    ]},
    {"binder": "B13", "values": [
      {"measurement": "Neutralization IC50 (RSV subtype A)", "setting": "RSV F on RSV-A2 virus [2]", "result": "> 25", "unit": "µg/mL"}
    ]},
    {"binder": "B14", "values": [
      {"measurement": "Neutralization IC50 (RSV subtype A)", "setting": "RSV F on RSV-A2 virus [1]", "result": "> 25", "unit": "µg/mL"}
    ]},
    {"binder": "B15", "values": [
      {"measurement": "Neutralization IC50 (RSV subtype A)", "setting": "RSV F on RSV-A2 virus [1]", "result": "> 25", "unit": "µg/mL"}
    ]}
  ]
}
